The results in this text go back to the supplement of paper PMC9112550, “Optimization of the antimicrobial peptide Bac7 by deep mutational scanning” (BMC Biology, 2022).

The data set concerns Escherichia coli TOP10. As to the kind of experiment: shrunken log2 fold change of peptide-encoding DNA abundance (4.5 h post-induction vs induction); higher = less antimicrobial activity (less host growth inhibition). The conditions noted are these: time post-induction: 4.5 h; library: site-saturation at positions 5, 18, 19, 20.
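Note: peptides expressed intracellularly from a pBAD plasmid library in pooled LB shake-flask culture, induced with 0.3% L-arabinose, DNA abundance read by NGS, three biological replicates, DESeq2 with apeglm shrinkage.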

With RRIRNRPPRLPRPRPRPHIMPRP, the “shrunken log2 fold change” value was -0.122.

As for RRIRMRPPRLPRPRPRPDEIPRP, the “shrunken log2 fold change” value stood at 2.86.

As to RRIRQRPPRLPRPRPRPFRLPRP, the “shrunken log2 fold change” value was -0.00192.

RRIRRRPPRLPRPRPRPACNPRP: the “shrunken log2 fold change” value came out at 0.654.

In the case of RRIRLRPPRLPRPRPRPYEPPRP, the “shrunken log2 fold change” value is -0.0278.

Consider RRIRQRPPRLPRPRPRPWGVPRP, for which the “shrunken log2 fold change” value came out at 0.122.

Consider RRIRWRPPRLPRPRPRPGCIPRP, for which the “shrunken log2 fold change” value was 0.293.

As for RRIRYRPPRLPRPRPRPIMNPRP, the “shrunken log2 fold change” value was -0.123.

On to RRIRIRPPRLPRPRPRPEAYPRP, for which the “shrunken log2 fold change” value was found to be 0.00489.

RRIRNRPPRLPRPRPRPQKIPRP: the “shrunken log2 fold change” value was -0.22.

With RRIRDRPPRLPRPRPRPDIEPRP, the “shrunken log2 fold change” value worked out at 0.105.

Turning to RRIRWRPPRLPRPRPRPFILPRP, the “shrunken log2 fold change” value is -0.476.

As for RRIRQRPPRLPRPRPRPLLAPRP, the “shrunken log2 fold change” value stood at 0.328.

For RRIRERPPRLPRPRPRPYDDPRP, the “shrunken log2 fold change” value is -0.341.

RRIRLRPPRLPRPRPRPKSDPRP: the “shrunken log2 fold change” value worked out at 0.00855.

For RRIRDRPPRLPRPRPRPVCKPRP, the “shrunken log2 fold change” value was -0.0246.

With RRIRCRPPRLPRPRPRPGGIPRP, the “shrunken log2 fold change” value is -0.329.

RRIRYRPPRLPRPRPRPLKKPRP: the “shrunken log2 fold change” value was -0.339.

As for RRIRDRPPRLPRPRPRPVGDPRP, the “shrunken log2 fold change” value is 0.47.

For the sequence RRIRARPPRLPRPRPRPLHAPRP, the “shrunken log2 fold change” value stood at 0.554.

As for RRIRKRPPRLPRPRPRPLWTPRP, the “shrunken log2 fold change” value stood at 0.0306.

For RRIRGRPPRLPRPRPRPHWTPRP, the “shrunken log2 fold change” value came to 0.00915.

Take RRIRRRPPRLPRPRPRPWRIPRP: the “shrunken log2 fold change” value worked out at 0.0818.

On to RRIRCRPPRLPRPRPRPYQDPRP, for which the “shrunken log2 fold change” value was -0.725.

RRIRFRPPRLPRPRPRPQQMPRP: the “shrunken log2 fold change” value is -0.0245.

RRIRSRPPRLPRPRPRPHMKPRP: the “shrunken log2 fold change” value amounted to 0.427.

Consider RRIRRRPPRLPRPRPRPPNCPRP, for which the “shrunken log2 fold change” value is 0.15.

On to RRIRHRPPRLPRPRPRPRNTPRP, for which the “shrunken log2 fold change” value was -0.229.

In the case of RRIRWRPPRLPRPRPRPITGPRP, the “shrunken log2 fold change” value is 0.047.

RRIRGRPPRLPRPRPRPYYLPRP: the “shrunken log2 fold change” value was -0.791.

Regarding RRIRYRPPRLPRPRPRPLRHPRP, the “shrunken log2 fold change” value was -0.177.

In the case of RRIRERPPRLPRPRPRPHLVPRP, the “shrunken log2 fold change” value was -0.125.

For RRIRNRPPRLPRPRPRPANSPRP, the “shrunken log2 fold change” value was -0.153.

As to RRIRHRPPRLPRPRPRPCMAPRP, the “shrunken log2 fold change” value was -0.213.

As for RRIRMRPPRLPRPRPRPDIHPRP, the “shrunken log2 fold change” value was determined as 0.335.

Turning to RRIRRRPPRLPRPRPRPLNAPRP, the “shrunken log2 fold change” value was found to be 0.257.

For RRIRNRPPRLPRPRPRPTMMPRP, the “shrunken log2 fold change” value was 0.0241.

In the case of RRIRCRPPRLPRPRPRPVWRPRP, the “shrunken log2 fold change” value turned out to be 0.358.

For RRIRVRPPRLPRPRPRPFCFPRP, the “shrunken log2 fold change” value came to 0.0496.

Regarding RRIRVRPPRLPRPRPRPKEMPRP, the “shrunken log2 fold change” value was -0.131.

RRIRRRPPRLPRPRPRPHYEPRP: the “shrunken log2 fold change” value is -0.508.

Take RRIRVRPPRLPRPRPRPNQLPRP: the “shrunken log2 fold change” value was -0.188.

Turning to RRIRDRPPRLPRPRPRPTGAPRP, the “shrunken log2 fold change” value came out at 1.37.

As for RRIRGRPPRLPRPRPRPDVPPRP, the “shrunken log2 fold change” value amounted to 0.0136.

For the sequence RRIRMRPPRLPRPRPRPEAKPRP, the “shrunken log2 fold change” value came to 2.72.

For the sequence RRIRNRPPRLPRPRPRPIVNPRP, the “shrunken log2 fold change” value came out at 0.0189.

Take RRIRLRPPRLPRPRPRPLFAPRP: the “shrunken log2 fold change” value is 0.233.

For the sequence RRIRNRPPRLPRPRPRPWGVPRP, the “shrunken log2 fold change” value is 0.112.

With RRIRMRPPRLPRPRPRPRANPRP, the “shrunken log2 fold change” value worked out at 0.922.

Turning to RRIRCRPPRLPRPRPRPSQYPRP, the “shrunken log2 fold change” value is -0.471.
